Assay results reported in US20080159996.

Assays:
Assay in all cases: cell_activity
[1] = system: ZFN 8196z-FokI E490K/I538K (ZFN224 pair member) (synthetic)
[2] = system: ZFN 8196z-FokI wt (ZFN215 and ZFN201 pair member) (synthetic)
[3] = system: ZFN 8266-FokI Q486E/I499L (ZFN224 pair member) (synthetic)
[4] = system: ZFN 8266-FokI wt (ZFN201 pair member) (synthetic); details: pair ZFN201 with 8196z, PM1 cells, plasmid electroporation
[5] = system: ZFN 8267-FokI wt (ZFN215 pair member) (synthetic); details: pair ZFN215 with 8196z, CD4+ T-cells, MOI 100, Cel-1 assay; 31.2% in PBMCs
[6] = pair ZFN224, CD4 T cells, conditions giving 35.6% CCR5 modification, Surveyor nuclease

## AAACTGCAAAAG (double strand) [CCR5 168 half-site]
[1]; pair ZFN224, CD4+ T-cells, MOI 100, Cel-1 assay, 48.4% in Example 4
  activity (% CCR5 alleles modified): 14.9
[2]; pair ZFN201 with 8266, PM1 cells, plasmid electroporation
  activity (% CCR5 alleles modified): 2.4
[2]; pair ZFN215 with 8267, CD4+ T-cells, MOI 100, Cel-1 assay, 31.2% in PBMCs
  activity (% CCR5 alleles modified): 32.3

## CCR2 off-target site
[1]; [6]
  activity (% CCR2 alleles modified): 4.1
[3]; [6]
  activity (% CCR2 alleles modified): 4.1

## GATGAGGATGAC (double strand) [CCR5 r162 half-site]
[4]
  activity (% CCR5 alleles modified): 2.4
[3]; pair ZFN224 with 8196z, CD4+ T-cells, MOI 100, Cel-1, Examples 14 and 17 state 8266 in ZFN224 but Example 1 states 8267
  activity (% CCR5 alleles modified): 14.9
[5]
  activity (% CCR5 alleles modified): 32.3
